From patent US20120114665A1 (Regeneron, published 2012)
Values joined by “and” are separate entries in the source; they are usually repeats but may differ in a detail not shown here. Equal entries are not always repeated. Where two headings read alike, the source gives them in different places.

T1: human RANKL (receptor activator of NF-κB ligand) (human, UniProt O14788 140-317, limits assumed)
T1 construct: also called hRANKL; hRANKL native trimer
T1 sequence: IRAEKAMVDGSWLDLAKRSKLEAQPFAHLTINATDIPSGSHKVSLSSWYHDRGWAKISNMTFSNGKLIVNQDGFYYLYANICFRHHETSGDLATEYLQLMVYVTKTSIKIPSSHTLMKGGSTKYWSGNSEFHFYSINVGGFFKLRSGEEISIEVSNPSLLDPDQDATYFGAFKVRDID

T2: penta-his-tagged monkey (Macaca fascicularis) RANKL (Macaca fascicularis, UniProt O14788 125-317 (human entry))
T2 construct: also called his-mfRANKL; mfRANKL; not shown: penta-his tag
T2 chain: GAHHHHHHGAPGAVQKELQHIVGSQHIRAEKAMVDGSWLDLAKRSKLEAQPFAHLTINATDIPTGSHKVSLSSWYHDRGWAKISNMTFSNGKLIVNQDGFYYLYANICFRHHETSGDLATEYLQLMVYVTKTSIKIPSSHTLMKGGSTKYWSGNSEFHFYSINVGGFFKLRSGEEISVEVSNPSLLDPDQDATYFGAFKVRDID

T3: penta-his-tagged hRANKL (human)
T3 construct: also called his-hRANKL; not shown: penta-his tag
T3 chain: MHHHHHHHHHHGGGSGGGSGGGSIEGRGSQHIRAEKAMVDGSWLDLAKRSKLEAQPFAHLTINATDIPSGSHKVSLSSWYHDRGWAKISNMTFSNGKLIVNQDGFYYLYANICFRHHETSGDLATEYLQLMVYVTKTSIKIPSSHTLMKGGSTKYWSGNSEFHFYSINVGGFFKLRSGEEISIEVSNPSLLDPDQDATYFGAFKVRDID

T4: human trRANKL-his (R&D) (human, UniProt O14788 136-317, limits assumed)
T4 construct: Bought (R&D); also called captured RANKL; not shown: his tag
T4 sequence: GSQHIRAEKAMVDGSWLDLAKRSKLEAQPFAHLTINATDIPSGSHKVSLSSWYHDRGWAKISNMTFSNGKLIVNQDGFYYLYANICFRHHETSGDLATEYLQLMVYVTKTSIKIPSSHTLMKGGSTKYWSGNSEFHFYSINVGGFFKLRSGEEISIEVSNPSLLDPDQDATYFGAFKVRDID

T5: hRANKL captured on an anti-penta-his antibody surface (human, UniProt O14788 136-317)
T5 construct: also called captured hRANKL surface; not shown: his tag implied by capture on anti-penta-his
T5 sequence: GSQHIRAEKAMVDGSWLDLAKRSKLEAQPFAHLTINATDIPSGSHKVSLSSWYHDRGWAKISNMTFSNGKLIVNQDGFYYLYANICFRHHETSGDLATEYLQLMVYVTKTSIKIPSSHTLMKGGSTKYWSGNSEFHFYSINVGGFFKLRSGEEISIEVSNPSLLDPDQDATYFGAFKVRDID


Tests used:
[1] = target: T1, human RANKL (receptor activator of …); experiment: SPR (BIACORE), purified antibody, 37°C
[2] = target: T2, penta-his-tagged monkey (Macaca …); experiment: competition ELISA: 150 pM his-mfRANKL pre-mixed with antibody, free RANKL detected on hRANK-hFc plate
Method: (§1) Briefly, hRANK-hFc protein was coated on a 96-well plate in PBS buffer overnight at 4° C. at 2 μg/ml, and nonspecific binding was blocked with BSA, to form a hRANK-hFc surface.

[3] = target: T1, human RANKL (receptor activator of …); experiment: cell-based or functional assay
[4] = target: T2, penta-his-tagged monkey (Macaca …); experiment: competition ELISA: 150 pM his-mfRANKL pre-mixed with antibody, free RANKL detected on hRANK-hFc plate
Method: as §1

penta-his-tagged hRANKL [5] = target: T3, penta-his-tagged hRANKL; experiment: competition ELISA: 150 pM his-hRANKL pre-mixed with antibody, free RANKL detected on hRANK-hFc plate
Method: as §1

penta-his-tagged hRANKL [6] = target: T3, penta-his-tagged hRANKL; experiment: as above
Method: as §1

human trRANKL-his (R&D) [7] = target: T4, human trRANKL-his (R&D); experiment: SPR, trRANKL-his captured on anti-his, antibody 12.5-50 nM injected, 37°C
Description: (§2) Briefly, human trRANKL-his (R&D) was first captured over an anti-his surface. […] The antigen and antibody binding and dissociation were monitored for 1 hr. KD is expressed in pM, T_{1/2} in hrs.

[8] = target: T5, hRANKL captured on an anti-penta-his …; experiment: SPR (BIACORE), hRANKL captured on anti-penta-his, antibody 25-100 nM injected, 25°C
[9] = target: T1, human RANKL (receptor activator of …); experiment: SPR (BIACORE), purified antibody, 25°C
[10] = target: T5, hRANKL captured on an anti-penta-his …; experiment: SPR (BIACORE), hRANKL captured on anti-penta-his, antibody 25-100 nM injected, 37°C
[11] = target: T1, human RANKL (receptor activator of …); experiment: cell-based or functional assay; remark: listed apart in the source
human trRANKL-his (R&D) [12] = target: T4, human trRANKL-his (R&D); experiment: SPR, trRANKL-his captured on anti-his, antibody 12.5-50 nM injected, 25°C
Description: as §2

| Binder | Kd [1] [nM] | IC50 [2] [nM] | IC50, hRANKL-inducible luciferase activity in HK293/RANK/NFκB-luc-eGFP cells [3] | IC50 [4] [nM] | IC50 (penta-his-tagged hRANKL [5]) [nM] | IC50 (penta-his-tagged hRANKL [6]) [nM] | Kd (human trRANKL-his (R&D) [7]) [nM] | T1/2 (human trRANKL-his (R&D) [7]) [h] | Kd [8] [nM] | T1/2 [8] [h] | Kd [9] [nM] | Kd [10] [nM] | T1/2 [10] [h] | IC50, hRANKL-inducible luciferase activity in HK293/RANK/NFκB-luc-eGFP cells [11] [nM] | Kd (human trRANKL-his (R&D) [12]) [nM] | T1/2 (human trRANKL-his (R&D) [12]) [h] |
| --- | --- | --- | --- | --- | --- | --- | --- | --- | --- | --- | --- | --- | --- | --- | --- | --- |
| H4H008G (antibody, V domains shown, Purified antibody from clone 2G10) VH: QVQLVESGGGVVQPGRSLRLSCAASGFTFSGFGMHWVRQAPGKGLEWVAVISYDGRNKYYADSVKGRFTISRDNSKNTLYLQMNSLRAEDTAVYYCAKSLSGTYWGYGMDVWGQGTTVTVS VL: not shown | 0.163 | 0.16 | 0.02 nM | 0.29 | 0.02 | 0.09 | 0.0395 | 1 | 0.0119 | 6 | 0.007 | 0.0399 | 1 | 0.0108 | 0.0119 | 6 |
| H4H009P (antibody, V domains shown, Purified antibody from clone 2H10) VH: QVQLVESGGGVVQPGRSLRLSCAASGFTFSGYGIHWVRQAPDKGLEWVAVISYDGTNKYYGDSVKGRFTISRDNTKNTLYLQMNSLRTEDTAVYYCAKSLSGTYWGYGMDVWGQGTTVTVS VL: DIQMTQSPSTLSASVGDRVTITCRASQNIGNWLAWYQQKPGKAPKLLIYKASSLQNGVPSRFSGSGSGTEFTLTISSLQPDDFATYYCQRYNSYSWTFGQGTKVEIK | 0.0248 | 0.345 | 0.045 nM and 0.084 nM |  | 0.06 |  |  |  | 0.376 | 1 | 0.173 | 0.881 | 0.13 |  |  |  |
| H4H010P2 (antibody, V domains shown) VH: QVQLVQSGGGVVQPGRSLRLSCAASGFTFSGYGMHWVRQAPGKGLDWVTVISYDGSNKHYADSVKGRFTISRDNSKNTLYLQMSSLGPEDTAVYYCAKSLSGTYWGYGMDVWGQGTTVTVSS VL: not shown |  |  |  | 0.353 |  | 0.0519 | 0.848 | 0.15 |  |  |  |  |  | 0.0187 | 0.134 | 1 |
| H4H008P2 (antibody, V domains shown) VH: EVQLLESGGGLLQPGGSLRLSCAASGFTFSGFGMSWVRQAPGRGLEWVSVISYDGRNKYYADSVKGRFTSSRDNSKNTLYLQMNSLRAEDTAVYYCAKSLSGTYWGYGMDVWGRGTLVTVSS VL: EIVLTQSPATLSLSPGERATLSCRASQSIRSWLAWYQQKPGQAPRLLIYKASNRATGIPARFSGSGSGTDFTLTISSLEPEDFGVYYCQQYNSYLWTFGGGTKVEIKR |  |  |  | 1.8 |  | 0.0569 | 0.245 | 0.2 |  |  |  |  |  | 0.015 | 0.0254 | 2 |
